Experimental data as given in patent US20060286112A1.
Changes are numbered by the printed parent chain.

B1: 6.18 (antibody, V domains shown)
VH: EVQLVQSGAEVKKPGESLRISCKGSGYSVTSYWIGWVRQMPGKGLEWMGIIYPGDSDTRYSPSFQGQVTISADKSISTAYLQWSSLKASDTAMYYCARLQGDCSGGTCYGHFDYWGQGTLVTVS
VL: EIVLTQSPGTLSLSPGERATLSCRASQSVSSSYLAWYQQKPAQAPRLLIYVASRRATGIPDRFSGSGSGTDFTLTISRLEPEDFAVYYCQQYGTSSWTFGQGTTVEIK
B2: 2.7 (antibody, V domains shown)
VH: EVQLVESGGGLVKPGGSLRLSCAASGFTFSNAWMSWVRQAPGKGLEWVGRIKRKTDGETTDYAAPVKGRFTISRDDSRNTLYLQMNSLKTEDTAVYYCTIYTYYYGMDVWGQGTTVTVSS
VL: DIQMTQSPSSLSASVGDRVTITCRASQSINNYLNWYQQKPGKAPKLLIYAASSLESGVPSRFSGSGSGTDFTLTISSLQPEDFATYYCQQSYSTPPTFGQGTKVEIK
B3: 2.19 (antibody, V domains shown)
VH: QVQLQESGPGLVKPSETLSLTCTVSGDSISSYYWSWIRQPPGKGLEWIGYVYYSGSTNYNPSLKSRVTMSVDTSKNQFSLKLSSVTAADTAVYYCARDLELYAFDIWGQGTMVTVSS
VL: EIVLTQFPGTLSLSPGERVTLSCRASQSVSSTYVVWYQQKPGQAPRLLIYGASSRATGIPDRFSGSGSGTDFTLTISRLEPEDFAVYYCQQHGSSPWTFGQGTKVEIK
B4: 3.2 (antibody, V domains shown)
VH: QVQLVESGGGVVQPGRSLRLSCAASGFTFSSYGIHWVRQAPGKGLEWVAVIWYDGSDIYYADSVKGRFTISRDNSKNTLYLQMNSLRAEDTALYYCARESSGWTFDYWGQGTLVTVSS
VL: QSALTQPASVSGSPGQSITISCTGTSSDVGGYNYVSWYQQHPGKAPKLMIYEVSNRPSGISNRFSGSKSGNTASLTISGLQAEDEADYYCSSYTSSSTIIFGGGTKLTVL
B5: 2.25 (antibody, V domains shown)
VH: QVQLQQSGPGLVKPSQTLSLTCAISGDSVSSNSAAWNWIRQSPSRGLEWLGRTYYMSKWYNDYAVSVKSRITINPDTSKNQFSLQLNSVTPEDTAVYYCARARYCGGDCYDFDYWGQGTLVTVSS
VL: B2 VL with Q6H, N30S, N31I, Y32S, K42N, E55Q, V58I, Y92F, P96W
B6: 10.1 (antibody, V domains shown)
VH: QVQLQQSGPGLVKPSETLSLTCTVSGASISSYYWSWIRQPAGKGLEWIGRIYASGSTNYNPSLKSRVTMSVDTSKSQFSLNLSSVTAADTAVYYCAREGWERLQDYYYYGLDVWGQGTTVTVSS
VL: B3 VL with F7S, V19A, S31R, T32N, V34L, V35A, Y37N, H92Y, W97L, Q101G
B7: 2.11 (antibody, V domains shown)
VH: QVQLQESGPGLVKPSQTLSLTCTVSGGSINSGGYYWSWIRQHPGKGLEWIGYIFYSGSTYYNPSLKSRVNISVDTSKNQFSLKMSSVTAADTAVYYCARDQDGFDYWGQGTLVTVSS
VL: DIVMTQTPLSLPVTPGEPASISCRSSQSLLDSDDGNTYLDWYLQKPGQSPQLLIYTLSYRASGVPDRFSGSGSGTDFTLKISRVEAEDVGVYYCMQRIEFPWTFGQGTKVEIK
B8: 6.17 (antibody, V domains shown)
VH: B1 VH with T30S, Y80F, S84I, T107S
VL: B1 VL with S28T, V29I, S32G, T94S
B9: 6.48 (antibody, V domains shown)
VH: B1 VH with T30S, Y80F, S84I, T107S, Y114C
VL: DVVLTQSPLSLPVTLGQPASISCRSSQSLVNSDGDTYLSWFQQWPGQSPRRLFYEVSNWDSGVPDRFSGSGSGTDFTLKISRVEAEDVGVYYCMQGTHWLTFGGGTKVEIK
B10: 2.1 (antibody, V domains shown)
VH: QVQLQESGPGLVKPSQTLSLTCTVSGGSISSGGYYWSWIRQHPGKGLEWIGYIYNSGSTYYNPSLKSRGTISADTSKNQFSLKLSSVTAADTAVYYCARGSSSYYWYFDLWGRGTLVTVSS
VL: DIQMTQSPSSMSASVGDRVTITCRASQRISSNLNWYQQKPGKAPKFLIYGASSLQSGVPSRFSGSGSGTDFTLTISSLRPEDFATYYCQQSYSTPYTFGPGTKVDIK
B11: 6.3 (antibody, V domains shown)
VH: QVLLQESGPGLVKPSQTLSLTCTVSGGSISSGGYYWSWIRQHPGKGLEWIGYINYSGSAYYNPSLKSRVTISVDTSKNQFSLKLSSVTAADTAVYYCARDHWLLRGFDYWGQGTLVTVSS
VL: DIVMTQTPLSLSVTPGQPASISCKSSQSLLHSDGKTYLYWYLQKPGQPPQLLIYEVSNRFSGVPDRFSGSGSGTDFTLKISRVEAEDVGVYYCMQSIQLPRTFGQGTKVEIK

substrate: I domain-GST, recombinant GST fusion protein containing amino acids 127-340 of the human VLA-1 α1 subunit (human) (UniProt P56199); assay: SPR, mAb captured on anti-human IgG, I domain-GST in solution, no Mg2+, titration screen (*)
Sequence (P56199 151-364 limits assumed, form in doubt): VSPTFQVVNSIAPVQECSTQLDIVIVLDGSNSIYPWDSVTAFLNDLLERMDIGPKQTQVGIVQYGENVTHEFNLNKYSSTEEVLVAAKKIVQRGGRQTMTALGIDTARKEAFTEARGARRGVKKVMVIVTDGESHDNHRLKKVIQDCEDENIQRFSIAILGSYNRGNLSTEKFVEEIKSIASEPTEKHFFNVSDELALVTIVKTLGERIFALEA

Kd [nM] | koff [s⁻¹] | kon [M⁻¹ s⁻¹] | Binder
0.574 | 7.08e-05 | 123000 | B1
 | 8.22e-05 | 134000 | B2

substrate: I domain-GST, recombinant GST fusion protein containing amino acids 127-340 of the human VLA-1 α1 subunit (human) (UniProt P56199); assay: SPR, mAb captured on anti-human IgG, I domain-GST in solution, 1 mM Mg2+

Kd [nM] | koff [s⁻¹] | kon [M⁻¹ s⁻¹] | Binder
0.243 | 0.000131 | 538000 | B3
0.04 | 1.43e-05 | 354000 | B4
1.57 | 1.3e-05 | 8300 | B5

substrate: I domain-GST, recombinant GST fusion protein containing amino acids 127-340 of the human VLA-1 α1 subunit (human) (UniProt P56199); assay: SPR, mAb captured on anti-human IgG, I domain-GST in solution, 1 mM Mg2+, titration screen (*)

Kd [nM] | koff [s⁻¹] | kon [M⁻¹ s⁻¹] | Binder
0.068 | 3.1e-05 | 453000 | B6
0.025 | 8e-06 | 318000 | B7
0.255 | 0.000136 | 533000 | B8
0.216 | 0.000121 | 561000 | B9
0.138 | 7.2e-05 | 523000 | B1
0.117 | 3.77e-05 | 321000 | B2

substrate: I domain-GST, recombinant GST fusion protein containing amino acids 127-340 of the human VLA-1 α1 subunit (human) (UniProt P56199); assay: SPR, mAb captured on anti-human IgG, I domain-GST in solution, no Mg2+

Kd [nM] | koff [s⁻¹] | kon [M⁻¹ s⁻¹] | Binder
0.478 | 5.93e-05 | 124000 | B3
1.04 | 0.000173 | 166000 | B6
4.62 | 0.00211 | 456000 | B10
0.889 | 0.000208 | 234000 | B7
1.63 | 0.000154 | 94600 | B8
1.69 | 0.000243 | 144000 | B11
1.46 | 0.000111 | 75800 | B5

substrate: I domain-GST, recombinant GST fusion protein containing amino acids 127-340 of the human VLA-1 α1 subunit (human) (UniProt P56199); assay: competition: I domain-GST binding to immobilized collagen IV, anti-GST-HRP

IC50 [nM] | Binder
7.4 | B3
5.5 | B6
12 | B8
9.8 | B9
7.6 | B1
3.2 | B4
6.4 | B2

biological target: biotinylated I domain-GST (human) (UniProt P56199); assay: competition: I domain-btn binding to immobilized collagen IV, streptavidin-HRP

IC50 [nM] | Binder
3 | B3
3.1 | B6
7.6 | B8
6.1 | B9
3.3 | B1
1.6 | B4
2.4 | B2
